Laboratory results from patent publication US9616101B2, “Differentiation marker and differentiation control of eye cell” (Kyoto Prefectural Public University Corporation, priority 2012, dated 2017).

How the values were obtained:
[1] = tested on: cytosol β-catenin and p-LRP6; experiment: Western blotting of Wnt/β-catenin-associated molecules in human CEC with or without RSPO1; assay type: cell-based
From the text: For Western blotting, the following rabbit polyclonal antibodies: anti-LRP6, p-LRP6 (Cell Signaling Technology, Inc., Beverly, Mass.), as well as the following mouse monoclonal antibodies: β-catenin (BD Biosciences) and β-actin (Sigma-Aldrich, St. Louis, Mo.); were used. As a secondary antibody, HRP-labeled anti-rabbit or mouse IgG (GE Healthcare, Piscataway, N.J.) was used. Recombinant human SHH, purmorphamine, cyclopamine and RSpos were purchased from R&D Systems Inc. (Minneapolis, Minn.).
Cultured human CEC was washed with PBS, and then, rinsed with a lysis buffer containing PBS, 1% TRITON™ X-100, 0.5 M EDTA, phosphatase inhibitor cocktail 2 (Sigma-Aldrich) and […] (Roche). Detection of activated β-catenin (non-membrane-bound type) was implemented according to the protocol previously reported [Aghib D F et al., Exp Cell Res., 1995; 218: 359-369]. In brief, a cell lysate treated with Con A Sepharose™ 4B (GE Healthcare) was incubated at 4° C. for 1 hour. After centrifugation at 4° C. for 10 minutes, the supernatant was transferred into a new tube, Con A Sepharose™ was added to each tube, and the resultant was incubated at 4° C. for 1 hour. Finally, after simple centrifugation, the supernatant was transferred into a new tube, and the protein concentration was determined.
Then, the protein was separated by SDS-PAGE, and transferred to a PVDF membrane. […]

[2] = tested on: corneal endothelial cell of rabbit sclerocorneal section; experiment: Organ culture of rabbit sclerocorneal section with R-spondin 1: corneal endothelial cell density (ZO-1); assay type: cell-based, white rabbit; conditions: control 3674
Procedure: Eyeballs of white rabbit (Nacalai) euthanized for another object were purchased, and a sclerocorneal section was prepared. The sclerocorneal section was cultured in an incubator at 37° C. for 1 week in DMEM (INVITROGEN, catalog No.: 12320) and 10% fetal bovine serum (FBS) (BIOWEST, catalog No.: 51820-500). […] A corneal endothelial cell was subjected to nuclear staining with DAPI, and the Ki67-positive cell rate was calculated. In addition, a corneal endothelial cell was immunostained with ZO-1, and the cell density was calculated.

[3] = tested on: human corneal endothelial cell; experiment: Ki67 immunostaining of human corneal endothelial cells incubated with RSPO1 to 4; assay type: cell-based
From the text: A corneal tissue was embedded with OCT compound (catalog No.: 4583; Sakura Finetek, Tokyo, Japan), and frozen in liquid nitrogen to prepare a frozen corneal tissue section. The frozen block was sliced to 8 μm, applied on a silane-coating slide, and air-dried. For preparing the whole tissue section, a Descemet's membrane containing a corneal endothelial cell was peeled from a corneal tissue, allowed to stand in ice-cooled 100% acetone for 30 seconds, applied on a silane-coating slide, and air-dried. As a cultured corneal endothelial cell, a cell cultured on a LabTek 8-well plastic chamber slide was used. Ice-cooled 100% acetone was added to a corneal tissue and the cultured cell, the resultant was allowed to stand at 4° C. for 15 minutes to fix the cell. After shaking and washing with 0.15% TritonX/PBS-, 1% bovine serum albumin (catalog No.: A4503BSA; Sigma-Aldrich, St. Louis, Mo.) was added, and allowed to stand at room temperature for 30 minutes to perform blocking. A primary antibody was diluted with 1% BSA, and incubated at room temperature for 1 hour. As a primary antibody to be used, anti-rabbit GPR49/LGR5 (catalog No.: GTX71143; 1: 200; GeneTex Inc., San Antonio, Tex.), anti-rabbit Nestin (catalog No.: PRB-570C; 1: 200; COVANCE, Berkeley, Calif.), anti-mouse ABCG2 (catalog No.: NC_236; 1: 2; Kamiya biomedical CO., Seattle, Wash. USA), anti-mouse Ki-67 (catalog No.: 556003; 1: 200 BD Pharmingen™ NJ, USA), anti-rabbit Na^+/K^+ ATPase (catalog No.: A132; 1: 100; Zymed), and anti-rabbit ZO1 (Zymed Laboratries Inc., South San Francisco, Calif.) were used. The resultant was washed with 0.15% Triton/PBS- twice, and PBS- once.
A secondary antibody was diluted with a mixed solution of 1% BSA and 0.15% TrironX/PBS-, and incubated at room temperature for 30 minutes. As a secondary antibody to be used, Alexa™ Fluor 488-labeled (conjugated) goat anti-rabbit IgG (catalog No.: A11034; 1: 1500; Molecular Probe-Invitrogen) and Alexa™ Fluor 488-labeled (conjugated) goat anti-mouse IgG (catalog No.: A11029; 1: 1500; Molecular Probe-Invitrogen) were used. The secondary antibody was shaken and washed with 0.15% Triton/PBS- twice, and PBS- once, subjected to nuclear staining with propidium iodide (catalog No.: SP29004-41; PI; Nacalai Tesque, Inc. Kyoto, Japan), and embedded while covered with a cover glass.
In order to investigate a relationship between R-sporadin 1 (RSPO1), R-spondin 2 (RSPO2), R-spondin 3 (RSPO3), or R-spondin 4 (RSPO4) and differentiation of a corneal endothelial cell, the relationship was studied using RSPO1. Reagents used are as follows. • RSPO1 R&D systems catalog No.: 4645-RS • RSPO2 R&D systems catalog No.: 3266-RS • RSPO3 R&D systems catalog No.: 3500-RS • RSPO4 R&D systems catalog No.: 4575-RS
Then, for the purpose of investigating the influence of RSPO on cell proliferation, RSPO1 to 4 were incubated into a human corneal endothelial cell under conditions of 37° C. and 5% CO2 for 1 day. Thereafter, Ki-67 being a cell proliferation marker was immunostained.

B1: R-spondin 1: Recombinant Human R-spondin 1 (R&D Cat. 4645-RS); ligand of GPR49/LGR5 (protein, listed as Homo sapiens)
chain: MRLGLCVVALVLSWTHLTISSRGIKGKRQRRISAEGSQACAKGCELCSEVNGCLKCSPKLFILLERNDIRQVGVCLPSCPPGYFDARNPDMNKCIKCKIEHCEACFSHNFCTKCKEGLYLHKGRCYPACPEGSSAANGTMECSSPAQCEMSEWSPWGPCSKKQQLCGFRRGSEERTRRVLHAPVGDHAACSDTKETRRCTVRRVPCPEGQKRRKGGQGRRENANRNLARKESKEAGAGSRRRKGQQQQQQQGTVGPLTSAGPA
For B1, the “protein level of cytosol β-catenin and p-LRP6” value ([1]; cell transfected with GPR49/LGR5 and treated with RSPO1 (50 ng/ml), as compared with NT cell) was “clearly decreased”, the “protein level of cytosol β-catenin and p-LRP6” value ([1]; cells transfected with NT and GPR49/LGR5, treated with RSPO1 (50 ng/ml), as compared with cell group not treated with RSPO1) was “decreased” and the “corneal endothelial cell density” value ([2]; 1 ng/ml R-spondin 1, 1 week) was 4314 cells/mm^2. The “corneal endothelial cell density” value ([2]; 10 ng/ml R-spondin 1, 1 week) was 4626 cells/mm^2, the “corneal endothelial cell density” value ([2]; 100 ng/ml R-spondin 1, 1 week) was 5037 cells/mm^2 and the “level of the Ki67(+) cell ratio” value ([3]; 50 ng/ml (FIG. 6C-C), as compared with other RSPOs) was “dramatically increased”. For the same molecule, the Ki67 staining ([3]; R-spondin 1 1000 ng/ml (FIG. 11)) was “staining is also observed”, the “Ki67-positive cell rate as compared with a control” value ([3]; RSPO1 50 ng/ml, 500 ng/ml (FIG. 11)) was “increased” and the “proliferation of a human corneal endothelial cell (Ki-67 immunostain)” value ([3]; incubated 1 day, 37° C., 5% CO2) was “statistically significantly promoted proliferation”.
